{"source": "patent EP0607103A2", "about": "“Somatostatin analogs containing chelating groups and their radiolabeled compositions” (SANDOZ LTD., priority 1993, dated 1994)", "design": "species or system rats", "conditions": "rat, in vivo", "procedure": "The affinity of the CHELATES OF THE INVENTION for somatostatin receptors can also be shown by in vivo testing, according to standard test methods, e.g. as disclosed in GB-A-2, 225,579. For example the compound of Example 2 gives a tumor accumulation of 1.9 ± 0.4 % injected dose per g (n = 6) 4 hours after injection into rats bearing an exocrine pancreatic tumor.", "data": [{"smiles": "C[C@@H](O)[C@@H]1NC(=O)[C@H](CCCCN)NC(=O)[C@@H](Cc2c[nH]c3ccccc23)NC(=O)[C@H](Cc2ccccc2)NC(=O)[C@@H](NC(=O)[C@@H](Cc2ccccc2)NC(=S)Nc2ccc(CC(CNCCN)CNCCN)cc2)CSSC[C@@H](C(=O)N[C@H](CO)[C@@H](C)O)NC1=O", "note": "[Example 2, ^99mTc labelled compound of Example 1, metal not drawn]", "values": [{"measurement": "tissue uptake at 4 h", "result": "1.9 ± 0.4", "unit": "%ID/g"}]}]}
